This data set concerns the molecule itself. Briefly: gel filtration on a calibrated Sephacryl 200 column; self-association of the subunit (43 kDa by SDS-PAGE) into a homodimer. The source says:
Purification and Functional Characterization of Recombinant Enzymes—The PSOMT1 and PSOMT2 cDNAs were each constructed to express the recombinant proteins with six histidine residues elongating the amino terminus. The proteins were then purified from S. frugiperda Sf9 cell culture medium in one step by cobalt affinity chromatography to yield electrophoretically homogeneous proteins. PSOMT1 and PSOMT2 each have relative molecular masses of 43 kDa as determined by SDS-PAGE. This compares with the calculated molecular masses of 39,841 and 38,510 based on the translation of the nucleotide sequences. The native relative molecular masses were determined by gel filtration on a calibrated Sephacryl 200 column (Pharmacia). PSOMT1 and PSOMT2 are each homodimers with an Mr of 85 and 80 kDa, respectively. This is consistent with that observed for norcoclaurine 6-O-methyltransferases of (S)-reticuline biosynthesis in T. tuberosum (4).

B1: Papaver somniferum (R,S)-reticuline 7-O-methyltransferase (PSOMT1), recombinant, His-tagged subunit (enzyme)
chain: MDTAEERLKGQAEIWEHMFAFVDSMALKCAVELGIPDIINSHGRPVTISEIVDSLKTNTPSSSPNIDYLTRIMRLLVHKRLFTSELHQESNQLLYNLTRSSKWLLKDSKFNLSPLVLWETNPILLKPWQYLGKCAQEKSSPFERAHGCEIWDLALADPKFNNFLNGAMQCSTTTIINEMLLEYKDGFSGIAGSLVDVGGGTGSIIAEIVKAHPHIQGINFDLPHVVATAAEFPGVKHVGGDMFVDIPEADAVIMKWILHDWSDEDCTIILKNCYRAIRKKKNGKVIIVDCVLRPDGNDLFDKMGLIFDVLMMAHTTAGKERTEAEWKILLNNAGFPRYNVIRTPAFPCIIEAFPE
notes: Full-length open reading frame expressed in Sf9 cells with an N-terminal His tag and purified on cobalt resin; GenBank AY268893 is printed for it; also called Pso7OMT; Ps7OMT; not shown: six histidine residues elongating the amino terminus (pFastBac HTa vector)
Turning to B1, the binding result was “binds”.

B2: Papaver somniferum (R,S)-norcoclaurine 6-O-methyltransferase (PSOMT2), recombinant, His-tagged subunit (enzyme)
chain: METVSKIDQQNQAKIWKQIYGFAESLVLKCAVQLEIAETLHNNVKPMSLSELASKLPVAQPVNEDRLFRIMRYLVHMELFKIDATTQKYSLAPPAKYLLRGWEKSMVDSILCINDKDFLAPWHHLGDGLTGNCDAFEKALGKSIWVYMSVNPEKNQLFNAAMACDTRLVTSALANECKSIFSDGISTLVDVGGGTGTAVKAISKAFPDIKCTIYDLPHVIADSPEIPNITKISGDMFKSIPSADAIFMKCILHDWNDDECIQILKRCKEALPKGGKVIIVDVVIDMDSTHPYAKIRLTLDLDMMLNTGGKERTKEEWKTLFDAAGFASHKVTQISAVQSVIEAYPY
notes: Full-length open reading frame expressed in Sf9 cells with an N-terminal His tag and purified on cobalt resin; GenBank AY268894 is printed for it; also called Pso6OMT; Ps6OMT; not shown: six histidine residues elongating the amino terminus (pFastBac HTa vector)
With B2, the binding result is “binds”.

For the origin of these results see US20100075385A1 (DONALD DANFORTH PLANT SCIENCE CENTER, published 2010).
